To fix the notation:
T1: human TREK-2 protein (residues Gly67 to Glu340) (human)
T1 chain: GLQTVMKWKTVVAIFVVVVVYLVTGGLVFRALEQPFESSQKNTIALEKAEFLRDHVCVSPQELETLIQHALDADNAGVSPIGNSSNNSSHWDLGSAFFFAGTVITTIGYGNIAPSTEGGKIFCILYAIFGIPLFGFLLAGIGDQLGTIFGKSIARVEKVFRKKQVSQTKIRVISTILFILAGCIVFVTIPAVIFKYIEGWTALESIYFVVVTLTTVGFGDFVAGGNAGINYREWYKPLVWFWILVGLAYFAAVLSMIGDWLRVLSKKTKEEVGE

T2: biotinylated TREK-2 (Homo sapiens, biotin (site not stated))
T2 construct: the buffer (OGNG/CHS) is that of the cryo-EM sample
T2 chain: T1 chain

B1: CA10772 (VHH)
VHH: QVQLVESGGGLVQPGGSLRLSCAASGFTFSAYAMRWHRQAPGKGLEWVSSIDHSGAWPNYADSVKGRFTISRDNAKNTLYLQMDSLKPEDTAVYYCSKAGFRGQGTQVTVSS
B2: CA10754 (VHH)
VHH: QVQLVESGGGLVQAGGSLRLSCAASGRTFSTYAMSWFRQAPGKEREFVARIRWSTTRTSSTYYADSVKGRFTISGDNAKNTVYLQMDSLKPEDTAVYYCAAVINPYSSAYEYWGQGTQVTVSS
B3: CA10773 (VHH)
VHH: QVQLVESGGGLVQPGGSLRLSCAASGFTFSSYPMSWARQAPGKGLEWVSAINRGGSSTNYADSVKGRFTISRDNAKNTLYLQMDSLKPEDTAVYYCFKGGTRGQGTQVTVSS
B4: CA10774 (VHH)
VHH: B3 VHH with S17T, Y32K, N52S, G54D, D73N, K76W, S85N, K98M
B5: CA10777 (VHH)
VHH: QVQLVESGGGLVQPGGSLRLSCAASGLIARLIDWGWYRQAPGKQRELVAAITAGGRTNYTDSVKGRFTISRDDPKNTVYLQMSALKPEDTAVYYCCVDFRSYAGKQYHYCGQGTQVTVSS
B6: CA10771 (VHH)
VHH: QVQLVESGGGLVQAGGSLRLSCAASGRTASLYAMDWFRQAPGKEREFVARLILSTFGTNYADSVKGRFTFSRDNAKNTVYLQMNNLKPEDTGVYFCAAHSLTSTNWDQGTQVTVSS
B7: CA10780 (VHH)
VHH: QVQLVESGGGLVQAGGSLRLSCAASGRTFSSYAMGWFRQAPGKEREFVAAISWSGGSTYYADSVKGRFTVSRDNAKNTVYLQMNSLKPEDTAVYYCAADSISTAQAMRVNERDYGMDYWGKGTQVTVSS
B8: CA10759 (VHH)
VHH: QVQLVESGGGLVQAGGSLRLSCAASGLTFSRYNMGWFRQAPGKEREFVAAINRYGGTMYATDSVKGRFTISRDNVKSTVDLQMNRLKPEDTAVYYCAADQQYMSRLEADFGSWGQGTQVTVSS
B9: CA10760 (VHH)
VHH: B8 VHH with R31A, M58L, A60T, K87E
B10: CA10770 (VHH)
VHH: QVQLVESGGGLVQAGGSLRLSCAASGRSFSSYRMAWFRQAPGLEREFVAAISRSGSNTDYADSVKGRFTISRDNAKNTVYLQMNSLKPDDTAVYFCAANTSPLLGSVATGQEYYIYWAQGTQVTVSS
B11: CA10755 (VHH)
VHH: QVQLVESGGGLVQAGGSLRLSCAASRSIVTINAMSWHRQAPGKQRELVASITKRGRTNIADSVKGRFAISWDRNTVYLQMNSLKPEDTAVYYCAALTDIPMNTYWGQGTQVTVSS
B12: CA10756 (VHH)
VHH: B11 VHH with I28F, M34I, R73K, V90N, M101V
B13: CA10778 (VHH)
VHH: B11 VHH with S27G, V29F, N32T, K53R, G65D, R73K, D87E, I99A
B14: CA10763 (VHH)
VHH: QVQLVESGGGLVQAGGSLRLSCAASGLTFSGYPMGWFRQAPGKEREFVATISRSGNNMHYADSVKGRFTISRDNAKNTVSLQMNSLKPEDTAVYYCAADSTTLRRGVASVEYWGQGTQVTVSS
B15: CA10779 (VHH)
VHH: QVQLVESGGGAVQAGGSLRLSCASSDHSFTRYTIAWFRQAPGKEREFVAALTWNGGITNYADSVKGRFTISRENGKNTAYLQMDALESEDTAVYYCAAVFGPASLTREDMYEYWGQGTQVTVSS
B16: CA10769 (VHH)
VHH: QVQLVESGGGLVQAGDSLRLSCAASGRTSSSDVMGWFRQAPGKGREFVAETSWRGGKTAYADSVKGRFAISRDNAKNTVYLQMNNLKPEDTAVYYCAVLHADSSTYAYWGQGTRVTVSS
B17: CA10765 (VHH)
VHH: QVQLVESGGGLVQAGGSLRLSCAASGFTFDDYAIGWFRQAPGKEREGVSCISSSDGSTYYADSVKGRFTISSDNAKNTVYLQMNSLKPEDTAVYYCAADPYLYCSDYGDSGTLSYYGVDYWGKGTQVTVSS
B18: CA10764 (VHH)
VHH: QVQLVESGGGLAQAGGSLRLSCAASGRTFSNYAMGWFRQAPGKEREFVATISSSGGTIRYADSVKGRFTISRDNAKNTVALQMNVLKPEDTAVYYCAQSKYGRAWSDRYEYDRWGQGTQVTVSS
B19: CA10752 (VHH)
VHH: QVQLVESGGGLVQAGGSLRLSCAASGRTSSTYAMSWFRQPPGKEREFVARIRWSGSNTYYADSVKGRFTISGDNAKNTVYLQMNSLKAEDTAVYYCAAVIDPYSSAYEYWGQGTQVTVSS
B20: CA10753 (VHH)
VHH: B19 VHH with S29F, P40A, S56T, N57S, Y59A, T69F, A88P, D101N
B21: CA10766 (VHH)
VHH: QVQLVESGGGLVQAGGSLRLSCAASGRSFSTYGIGWFRQAPGRERDLVASISWSGGGTYYADSVKGRSTISRDNAKNMVDLQMNSLKPEDTAVYYCAARRLGGVGRIVQYDYWGQGTQVTVSS
B22: Nb-Binder-58 (VHH)
VHH: QVQLVESGGGLVQAGGSLRLSCAASGRAGSGYAMGWFRQAPGKEREIVGAISWSGDNTYYADSVRGRVTISRDYAQNTVYLQMNSLKPEDTAVYYCAADGRGNLRRGTAGRYVEYWGQGTQVTVSS
notes: also called CA10758; Nb58; source: E. coli WK6, periplasm, purified (Ni-NTA)
B23: Nb-Binder-58 fused to the mVenus fluorescent protein (VHH)
VHH: B22 VHH
notes: as the VHH of m9 (Nb58); mVenus joined by a (GS)2 linker; also called Nb58 fused to mVenus; source: cloned into the pFAW vector; not shown: mVenus, C-terminal, kept
B24: Nb-Binder-57 fused to mVenus (VHH)
VHH: QVQLVESGGGLVQAGDSLRLSCASSGRALSNVAMGWFRQAPGKEREIVAAISWSGDNTYYADSGRGRFTISRDNAKNTVYLQMNNLRPEDTAVYYCAADGRGNLRRGTAGRYVDYWGQGTQVTVSS
notes: mVenus joined by a (GS)2 linker; also called CA10757; Nb57; source: cloned into the pFAW vector; not shown: mVenus, C-terminal, kept
B25: Nb-Inhibitor-61 (VHH)
VHH: QVQLVESGGGLVQAGDSLRVSCAGSGFTFTSYGMGWFRQAPGKEREFVASINWNSNTAYADSVRGRFTISRDNAESMMYLQMNSLKPEDTAVYYCAATRAYSKPRVDSRHYDYWGQGTQVTVSS
notes: also called CA10761; Nb61; source: E. coli WK6, periplasm, purified (Ni-NTA)

Changes are numbered by the printed parent chain.

T4 sequence (O95069 whole entry, the tested form may be a part): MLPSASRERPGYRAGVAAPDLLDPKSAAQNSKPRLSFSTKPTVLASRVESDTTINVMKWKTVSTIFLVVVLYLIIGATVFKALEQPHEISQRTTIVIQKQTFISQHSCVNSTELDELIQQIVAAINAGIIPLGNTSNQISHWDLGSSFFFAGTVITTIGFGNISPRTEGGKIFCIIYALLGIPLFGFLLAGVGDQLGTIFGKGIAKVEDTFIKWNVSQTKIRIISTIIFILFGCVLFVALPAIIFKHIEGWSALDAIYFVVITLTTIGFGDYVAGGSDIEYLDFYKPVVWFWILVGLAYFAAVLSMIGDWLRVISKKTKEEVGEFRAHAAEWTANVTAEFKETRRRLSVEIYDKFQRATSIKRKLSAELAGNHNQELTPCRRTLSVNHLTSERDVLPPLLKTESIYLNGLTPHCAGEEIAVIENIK

The target in the first test is T1, human TREK-2 protein (residues Gly67 to …).
Assay: not given
Conditions: not given
In the case of B1, the binding result is on record as “binds”. On the same count and under the same terms, for B2 the value was “binds”; for B3, “binds”.

B4: the binding result is listed as “binds”. On to B5, for which the binding result is “binds”. The same measure, in the same setting: for B6 the value was “binds”; for B7, “binds”. With B8, the binding result is “binds”. As for B9, the binding result is given as “binds”. On the same count and under the same terms, the result for B10 reads “binds”; that for B11, “binds”; that for B12, “binds”. On to B13, for which the binding result is on record as “binds”. On the same count and under the same terms, the result for B14 reads “binds”; that for B15, “binds”. B16: the binding result was “binds”. Still for that read-out and setting: for B17 the value was “binds”; for B18, “binds”; for B19, “binds”. For the molecule B20, the binding result was “binds”.

As for B21, the binding result is reported as “binds”.

The target is the same in the next test. The test is described as follows: SEC; each nanobody mixed with purified TREK-2 in a 2:1 molar ratio, Sepax SRT SEC-300 column in 200 mM KCl, 20 mM HEPES pH 7.5; shift of the 280 nm TREK-2 peak against TREK-2 alone. The conditions noted are these: both partners purified. On the technique in general: SEC sorts molecules by how far they enter the pores of the column.
As to B22, the binding result is reported as “binds”.

The target in a further test is T3, TREK-2-mCherry fusion (Homo sapiens, UniProt P57789-4, strain).
T3 construct: The legend says HEK-293, the methods HEK293T; also called TREK-2 tagged with the mCherry fluorescent protein; K2P-mCherry-pFAW; source: HEK293T, transfected (pFAW vector), fixed cells; not shown: mCherry, C-terminal, kept
T3 sequence (P57789 whole entry, looked up, stated change not applied, the tested form may be a part): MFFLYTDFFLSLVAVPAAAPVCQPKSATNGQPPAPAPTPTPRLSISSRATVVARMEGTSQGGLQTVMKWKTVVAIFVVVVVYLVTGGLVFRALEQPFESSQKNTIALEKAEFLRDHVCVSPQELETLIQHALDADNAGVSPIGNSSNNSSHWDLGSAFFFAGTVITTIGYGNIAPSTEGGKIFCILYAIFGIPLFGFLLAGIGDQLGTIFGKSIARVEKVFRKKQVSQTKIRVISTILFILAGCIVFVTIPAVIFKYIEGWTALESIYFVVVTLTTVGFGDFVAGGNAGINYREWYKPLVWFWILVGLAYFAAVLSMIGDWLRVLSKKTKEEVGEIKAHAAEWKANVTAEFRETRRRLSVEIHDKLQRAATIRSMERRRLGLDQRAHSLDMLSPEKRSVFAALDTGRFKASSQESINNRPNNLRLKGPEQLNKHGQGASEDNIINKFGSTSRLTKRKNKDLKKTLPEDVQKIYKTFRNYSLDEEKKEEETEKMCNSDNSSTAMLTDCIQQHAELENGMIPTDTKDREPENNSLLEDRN
The test is described as follows: immunostaining of cells or tissue; HEK293T cells transfected with K2P-mCherry, fixed with 4% formaldehyde, incubated with nanobody-mVenus for 2 h at 37 °C, washed, imaged for overlap of the two fluorescent signals.
Conditions: not given
Take B23: the binding result is “binds”.

Consider B24, for which the binding result is “binds”.

The next test concerns the target T4, TREK-1 tagged with mCherry (Homo sapiens, UniProt O95069).
T4 construct: human TREK-1 K2P channel, stop codon removed and mCherry fused in frame to the C-terminus by a (GS)2 linker; source: HEK293T, transfected (pFAW vector), fixed cells; not shown: mCherry, C-terminal, kept
The description is as above.
Conditions: not given
Take B23: the binding result is “no binding”. Same read-out and setting: for B24 the value was “no binding”.

The target in the next test is T2, biotinylated TREK-2. The test is described as follows: BLI; Octet Red; biotinylated TREK-2 (50 nM) loaded on streptavidin biosensors in 200 mM KCl, 20 mM HEPES pH 7.5, 0.12% OGNG, 0.012% CHS; nanobody dilutions 2 µM-7.8 nM (Nb61) and 1000 nM-3.9 nM (Nb6158); 600 s association, 600 s dissociation. Particulars: both partners purified. Background: BLI is a label-free optical method that tracks binding on a fibre tip over time.
For orientation: Kd means the equilibrium constant for the complex coming apart. Low readings indicate higher affinity, high ones lower affinity. For the molecule B25, the Kd is 1100 nM.
